In PMC11650716, “Identification of a robust bacterial pyranose oxidase that displays an unusual pH dependence” (The Journal of Biological Chemistry, 2024):

Columns and labels:
[1] = target: pyranose oxidase from Oscillatoria princeps (OPOx) (Oscillatoria princeps); assay: dynamic light scattering + SEC; DLS: about 15 μM OPOx in 50 mM citrate buffer (pH 5.5), 294 K; gel permeation chromatography (Fig. S3)
[2] = target: pyranose oxidase from Oscillatoria princeps (OPOx) (Oscillatoria princeps); assay: crystal structure; X-ray, 2.64 Å, space group P2(1)2(1)2(1), tetramer in the asymmetric unit; crystals with sodium sulfate as additive at pH 9.2. A low-resolution C222(1) crystal form has a dimer in the asymmetric unit and forms the tetramer through a crystallographic two-fold axis
[3] = target: T1, OPOx (pyranose oxidase from Oscillatoria princeps) (Oscillatoria princeps, UniProt A0ABF7PQA8); assay: X-ray crystal structure, […] Å; format: binding; settings: covalent; 8α-methyl of FAD bound to His125 NE2; crystals at pH 9.2
T1 construct: full length, 534 residues (533 also printed), N-terminal His-tag, pBAD vector, E. coli NEB 10-beta; synthetic codon-optimised gene; 61 kDa with tag; homotetramer
T1 sequence (A0ABF7PQA8 1-533): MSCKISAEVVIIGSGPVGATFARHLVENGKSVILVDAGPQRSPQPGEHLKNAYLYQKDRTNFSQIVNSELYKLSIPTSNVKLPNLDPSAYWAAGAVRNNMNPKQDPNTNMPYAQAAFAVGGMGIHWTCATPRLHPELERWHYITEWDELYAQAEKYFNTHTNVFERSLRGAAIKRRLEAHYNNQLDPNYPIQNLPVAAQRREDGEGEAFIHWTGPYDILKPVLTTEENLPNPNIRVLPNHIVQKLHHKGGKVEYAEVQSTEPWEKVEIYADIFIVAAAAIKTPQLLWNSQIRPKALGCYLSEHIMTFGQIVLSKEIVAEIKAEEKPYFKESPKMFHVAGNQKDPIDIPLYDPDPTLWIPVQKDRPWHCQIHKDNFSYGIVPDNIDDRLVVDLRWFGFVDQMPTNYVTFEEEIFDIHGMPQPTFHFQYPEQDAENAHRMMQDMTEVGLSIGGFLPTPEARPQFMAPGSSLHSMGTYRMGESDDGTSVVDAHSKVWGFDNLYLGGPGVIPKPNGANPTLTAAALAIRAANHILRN

Row | Compound | stoichiometry N [1] | stoichiometry N [2] | X-ray crystal structure, 2.64 Å [3]
1 | pyranose oxidase from Oscillatoria princeps (OPOx) (enzyme) | 4 | 4 | 
2 | Cc1cc2nc3c(=O)[nH]c(=O)nc-3n(C[C@H](O)[C@H](O)[C@H](O)COP(=O)(O)OP(=O)(O)OC[C@H]3O[C@@H](n4cnc5c(N)ncnc54)[C@H](O)[C@@H]3O)c2cc1C [FAD] |  |  | crystal structure of OPOx with a covalently bound FAD cofactor per subunit
